The source of these data is article PMC4340053, “The DEAH-box Helicase Dhr1 Dissociates U3 from the Pre-rRNA to Promote Formation of the Central Pseudoknot” (PLoS Biology, 2015).

Numbering of substitutions follows the chain as printed. Numbers in names are those of the source.

The labels stand for the following.
B1: Dhr1 (Ecm16) (Saccharomyces cerevisiae S288C) (protein)
chain: MGTYRKRFNEKARSGHMAKLKELKRIRNKQFTRQDENDERVENPDSAPAESSTTEPNANAEILEPLTEEEKKMKKRKLQELFTPKESKVSRLKKKRLDKFIEHQLKREERKTIIGKLQDYKIDTSLLTSSKRLGEGRQTKKEEFKEALSLERQGRGNEQTNEILYEEYEPKVWDEYGEGGSSEDDDGEDDFEASFGSMPKPTDNEEKKSSGFIDHRPAKFGGSGLSFGFSNIKVINKESKTPKKKYNWRQRVEMEELKKHGKEDEMDFDTTSEDDDEEEDQEEEDKMHPSENPLEEVESADSETGSEKFDQNDVANEFKDWANQEIKKLEGRDQELVTPTLNIDYKPIIRKEDLDDGLQEAYVPINENSTRKAFYVEVSRSDEIQKARIQLPVFGEEHKIMEAIHHNDVVIICGETGSGKTTQVPQFLYEAGFGAEDSPDYPGMVGITQPRRVAAVSMAERVANELGDHGHKVGYQIRFDSTAKEDTKVKFMTDGVLLREMMHDFKLTKYSSIIIDEAHERNINTDILIGMLSRCVRLRAKLHKENPIEHKKLKLIIMSATLRVSDFSENKTLFPIAPPVLQVDARQFPVSIHFNRRTAFNYTDEAFRKTCKIHQKLPPGAILVFLTGQQEITHMVKRLRKEFPFKKNSKYNKDLETPVSKMGINSKTTDLEAEDIDFSVQVIDQDKFKSAIRYEEDEGNSGNGEDEEDEEEEGFEEVLTEGQTANDPLYVLPLYSLLPTKEQMRVFQKPPQGSRLCIVATNVAETSLTIPGVRYVVDSGRSKERKYNESNGVQSFEVGWVSKASANQRSGRAGRTGPGHCYRLYSSAVFEHDFEQFSKPEILRMPVESIVLQMKSMAIHNIINFPFPTPPDRVALSKAIQLLQYLGALDNKEMITEDGKKMSLFPLSPRFSKMLLVSDEKACLPYIVAIVSALSVGDPFINEFELGINEISRKPNPDENLDDKIREHDESTPGMDPELKKELRSKFYKSRSQFSKLDKFSDVFRLLSVVSAMDYVPKEQKEIFMKKNFLRGKLMEEIVKLRKQLMYIIKSNTSKENIAVVIRNEDLKSDIPSVIQIKLLKQMICAGFVDHVAVRADVLFPDDAKITNRTSIINIPYIPVLATRTPNIEDCFVYIHPTSILNNLGEMPPKYMLYYSLHLGGNNKTRMNTLCDIASTPLANIARKGLLLTYSKPLTGQGLKTVNLSPTERYCYVVPRFGSTVDNDLKIGWDLNPIAVHQKKQKGQWTVIKFITRKGFQTITGEEKEKK
notes: full-length with C-terminal Leu-Glu-6xHis (pAJ2312), tag kept; expressed in E. coli BL21 Star (DE3), RNase-treated, Ni-NTA and SP HiTrap
B2: Dhr1 (Ecm16) (Saccharomyces cerevisiae S288C; D516A/E517A) (protein)
chain: B1 chain with D516A, E517A
notes: as for B1
B3: Dhr1 (Ecm16) (Saccharomyces cerevisiae S288C; K420A) (protein)
chain: B1 chain with K420A
notes: as for B1

Substrate in the data set: Nc1ncnc2c1ncn2[C@@H]1O[C@H](COP(=O)(O)OP(=O)(O)OP(=O)(O)O)[C@@H](O)[C@H]1O
In words: purified protein. The data set is classed as biochemical, Saccharomyces cerevisiae. Conditions: poly(A) RNA present, equimolar MgCl2, pH 8.0, room temperature.
With B1, the Km was 106 µM and the kcat worked out at 0.217 s⁻¹.

On to B2, for which the Km was determined as 136 µM and the kcat came to 0.03 s⁻¹.

Turning to B3, the Km is 1000 µM and the turnover number (kcat) came to 0.05 s⁻¹.
